The values below come from paper PMC9405973, “Altered Conformational Landscape upon Sensing Guanine Nucleotides in a Disease Mutant of Elongation Factor-like 1 (EFL1) GTPase” (Biomolecules, 2022).

Data set [1] has as its target Sdo1 (Saccharomyces cerevisiae) (UniProt Q07953). The data set can be described thus: ITC. Conditions: cited from earlier work.
Substrate in data set [2]: Nc1nc2c(ncn2[C@@H]2O[C@H](COP(=O)(O)OP(=O)(O)OP(=O)(O)O)[C@@H](O)[C@H]2O)c(=O)[nH]1
The experiment in a line: GTP hydrolysis by PNP-coupled Enzchek phosphate assay (MESG, 360 nm), pH 7.5, 5 mM MgCl2, 6 µM Efl1 alone, Michaelis-Menten fit. The format is biochemical. The conditions noted are these: 25.0 °C. As to the method:
(§1) Finally, we measured the enzyme kinetics of mutant Efl1 R1086Q as an isolated enzyme and bound to Sdo1 using an enzymatic coupled assay with a purine nucleoside phosphorylase (PNP) enzyme. This analysis was extended to another disease mutation (EFL1 M882K) also located in domain IV of the GTPase using the equivalent yeast variant, Efl1 L910K [17]. The Km and kcat kinetic parameters were calculated using non-linear regression assuming a Michaelis–Menten model (Supplementary Table S1). […] The catalytic constant for mutant R1086Q and the wild-type enzyme consisted of 0.67 min^−1, and it was 0.58 min^−1 for mutant Efl1 L910K. […] In line with the proposed role of Sdo1 as a guanine exchange factor of Efl1, previous results have shown that the interaction of wild-type Efl1 with Sdo1 impacted its Km for GTP, decreasing its value 2–3-fold. The Km values for the complexes formed between Sdo1 and Efl1 mutants decreased by half with respect to their cognate-free counterpart and differed from each other. […] The measured Km value comprises all the microscopic rate constants of the individual reactions occurring in the enzyme, which include the binding to the substrate and product and the corresponding conformational changes.
Hydrolysis of GTP was measured using the Enzchek Phosphate Assay kit (Molecular Probes) as described by Webb. […]
Reactions were initiated and the GTPase was added after 3 min. Time courses were followed by recording the change in absorbance at 360 nm in a Cary 60 UV -Vis spectrophotometer (Agilent Technologies). Background absorbance was recorded prior to the addition of the GTPase and subtracted from the sample signals. The slope of the measured time courses corresponded to the GTP hydrolysis rate. […] Data were analysed by nonlinear regression to the M ichaelis-Menten equation with the program Origin Version 5.0 (OriginLab, Co., Northampton, MA). […]
(§2) Maximum emission at 440 nm was replotted as a function of nucleotide concentration and analysed

The test system of data set [3] is Tif6 bound to 60S subunits. The experiment in a line: Tif6 release assay with purified yeast components. The format is biochemical, Saccharomyces cerevisiae. The conditions noted are these: 50 nM Efl1 variant, 50 nM Sdo1, 100 µM GTP, 30 °C, 10 min. As to the method: The release of Tif6 (yeast orthologue of eIF6) was performed as previously described in [3, 15]. Reaction mixtures contained 10 nM 60S subunits, 40 nM Tif6, 50 nM Efl1 variant, 50 nM Sdo1, and 100 µM GTP in buffer of 10 mM Tris-HCl at pH 7.4, 75 mM KCl, and 1.5 mM MgCl2 supplemented with RNAse inhibitors (Promega, Madison, WI, USA) and protease inhibitors free of EDTA (GoldBio, St. Louis, MO, USA). GTP was omitted in the negative control, and 50 mM EDTA was added as the positive control to disassemble the 60S ribosomal subunits. Reaction mixtures of 100 µL were incubated at 30 °C for 10 min and added on top of 150 µL of a 30% sucrose cushion prepared in the same buffer. Samples were centrifuged at 476,000× g for 30 min in an Optima tabletop MX ultracentrifuge with a TLA-100 rotor. The top 200 µL (free fraction) was recovered, and the remaining 50 µL was resuspended in 150 µL of the same buffer. Samples were precipitated with 30% trichloroacetic acid, electrophoresed in 10% Tris-glycine SDS-PAGE, transferred to a PVDF membrane, and immunoblotted with antibodies anti-eIF6 (PA531066; Thermo Scientific; dilution 1:3000) and anti-uL3 (OAAB09713; Aviva Systems Biology, San Diego, CA, USA; dilution 1:500) overnight at 4 °C. […] Signals were quantified using programme Image J version 1.8.0. […]

Data set [4] in a line: Enzyme kinetics of GTP hydrolysis (PNP coupled assay, Michaelis–Menten). The format is biochemical, Saccharomyces cerevisiae. Conditions: isolated enzyme. As to the method:
as §1
Hydrolysis of GTP was measured using the Enzchek Phosphate Assay kit (Molecular Probes) as described by Webb. Standard reactions consisted of 100 µL containing 6 µM of Efl1 R1086Q and Efl1 L910K, 0.3 mM MESG, 1.0 U purine nucleoside phosphorylase (PNP) and the indicated amounts of GTP. Measurements done in the presence of effector protein contained 25 µM of Sdo1.
The reaction buffer consisted of 50 mM HEPES -KOH pH 7.5, 150 mM NaCl, 5 mM MgCl2.
Reactions were initiated and the GTPase was added after 3 min. Time courses were followed by recording the change in absorbance at 360 nm in a Cary 60 UV -Vis spectrophotometer (Agilent Technologies). Background absorbance was recorded prior to the addition of the GTPase and subtracted from the sample signals. The slope of the measured time courses corresponded to the GTP hydrolysis rate. The concentration of releas ed phosphate was estimated using a molar absorption coefficient at 360 nm of 14,386 M -1 cm-1 previously described in [2]. Data were analysed by nonlinear regression to the M ichaelis-Menten equation with the program Origin Version 5.0 (OriginLab, Co., Northampton, MA). […]
M HEPES-KOH pH 7.4, 2.5 mM magnesium acetate, 50 mM sucrose, 2 mM DTT, 0.1 mM PMSF, 0.1 mM benzamidine, 8 mM putrescine, 1 mM spermidine. […]
Dilution at the end of each titration was no longer than 2.5% of the initial volume. Data were corrected for the background signal by subtracting the fluorescence of the same ligand concentration without the GTPase in the reaction mixture.
as §2

Sdo1 (Saccharomyces cerevisiae), sequence (Q07953 whole entry): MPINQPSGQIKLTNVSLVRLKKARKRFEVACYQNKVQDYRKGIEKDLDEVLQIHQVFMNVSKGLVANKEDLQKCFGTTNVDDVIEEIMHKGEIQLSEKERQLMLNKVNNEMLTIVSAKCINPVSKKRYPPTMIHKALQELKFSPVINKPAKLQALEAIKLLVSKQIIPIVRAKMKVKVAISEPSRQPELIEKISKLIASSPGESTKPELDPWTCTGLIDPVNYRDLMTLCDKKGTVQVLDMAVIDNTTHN

With Efl1 (from UniProt P53893), the dissociation constant Kd – broadly, the equilibrium constant for the complex coming apart – in data set [1] was 300 nM.

B1: Efl1 R1086Q (Saccharomyces cerevisiae S288C; R1086Q) (protein)
chain: MPRVESETYKRLQNDPSCIRNICIVAHVDHGKTSLSDSLLASNGIISQRLAGKIRFLDARPDEQLRGITMESSAISLYFRVLRKQEGSDEPLVSEHLVNLIDSPGHIDFSSEVSAASRLCDGAVVLVDVVEGVCSQTVTVLRQCWTEKLKPILVLNKIDRLITELQLTPQEAYIHLSKVIEQVNSVIGSFFANERQLDDLFWREQLEKNENAEYIEKDDSGIYFNPTDNNVIFASAIDGWGFNIGQLAKFYEQKLGAKRENLQKVLWGDFYMDPKTKKIINNKGLKGRSLKPLFTSLILENIWKIYQNIITSRDSEMVEKIAKTLNIKLLARDLRSKDDKQLLRTIMGQWLPVSTAVLLTVIEKLPSPLESQTDRLNTILVSESDTAAMDPRLLKAMKTCDKEGPVSAYVSKMLSIPREELPVESKRIASSDELMERSRKAREEALNAAKHAGMVENMAMMDLNDNSKNTSDLYKRAKDTVMTPEVGEQTKPKPSRNNDVFCVVSEPSSALDLEFEYEGEDDSDSQDNFGLDFVPTDIDPNDPLSSMFEYEEEDPLLESIKQISEDVNDEVDDIFDEKEECLVAFARIYSGTLRVGQEISVLGPKYDPKCPEEHIETAIITHLYLFMGKELVPLDVCPSGNIVGIRGLAGKVLKSGTLIEKGVQGVNLAGVNFHFTPIVRVAVEPANPVEMSKLVRGLKLLDQADPCVHTYVENTGEHILCTAGELHLERCLKDLTERFAGIEITHSEPAIPYRETFLSASDMNPPQNSQLGRGVHELLLSQYKITFRTFPLSGKVTDFLSQHQNSIKNILKTSTSSMDPVIESTGSSFLDKKSLLVAFEEVINQEEKSRELLSGFKVKLAGFGPSRVGCNILLSQDNLLGSLFEGTPAAFEYSDSIKNGFQLAVSEGPLANEPVQGMCVLVESVHKMSQDEIESIEDPRYQQHIVDLSGRLITSTRDAIHEAFLDWSPRIMWAIYSCDIQTSVDVLGKVYAVILQRHGKIISEEMKEGTPFFQIEAHVPVVEAFGLSEDIRKRTSGAAQPQLVFSGFECIDLDPFWVPTTEEELEELGDTADRENIARKHMNAIQRRKGLFIEEKVVENAEKQRTLKKN
notes: recombinantly expressed in S. cerevisiae; isolated GTPase
As for B1, in data set [2], the Km (in general, the substrate concentration at which the rate is half of its maximum) is 146 µM. For the same molecule, the “release of Tif6 from the 60S subunit (distribution of Tif6 in free and bound fraction, immunoblot)” value in data set [3] is on record as “reduced portion of Tif6 in the free fraction compared with that for the wild type”. The catalytic constant (kcat) – broadly, the maximal rate divided by the concentration of active sites – in data set [4] came to 0.0112 s⁻¹.
